Test results: IntAct's records for PubMed 31515488

B1: Sperm-associated microtubule inner protein 4 (Homo sapiens), Q8N865 (parent)
chain: MEVIHGRPYCCRELEGADILSNTFYSNELHNPLQTVTRPTASEDRYQELRESLQQCRLPWGAEREYGGIIPISLPEDHRPKYEPPRVMGKGHQHYGFGGETWPRKLPVEQFYYLTQNKKSDVYGNDSLIPKPPNSTVGEICLPYPIEHPYHTHICRGAMFPTFTSPEDLYTGIKARTQQPFPPTVPTKAYDSTVLKTRGNPYRYELIDIPMDSKKKALTWPGQGVYYDFPRGVEKNKPVFYPKPPKTFAPNTSLNSWDPICSAKEANIQRNLERSHWLTSYTHDFTGLGPMDPLELDDYHEKMVAELTRKIGFDPEPQEKFHPVFKPPRPLEGRIARLIQNRRSLEAIVQQRPRSCPDCTPRVLCNFHTFVPSSKEMVALSDNIPAGVTHKNQDIEEKIIEEQSLLSTYELPSCYPTKDLTSIYDIKPFPKITDTKKTEDLYWRQQSLKTQPTPYCKPDHWIHYENLKSPLRDQYNMCPDPVSLSKPSVLQNKQDTEAFTLEHFLSKPEEELFLNMENNEETRPVLGWIPRAGVTKPQTNLLELKNSFSKTGAQKRFHKSILEDHKDLRDNEHSGMKHQFYGHNSYYFYN
partner: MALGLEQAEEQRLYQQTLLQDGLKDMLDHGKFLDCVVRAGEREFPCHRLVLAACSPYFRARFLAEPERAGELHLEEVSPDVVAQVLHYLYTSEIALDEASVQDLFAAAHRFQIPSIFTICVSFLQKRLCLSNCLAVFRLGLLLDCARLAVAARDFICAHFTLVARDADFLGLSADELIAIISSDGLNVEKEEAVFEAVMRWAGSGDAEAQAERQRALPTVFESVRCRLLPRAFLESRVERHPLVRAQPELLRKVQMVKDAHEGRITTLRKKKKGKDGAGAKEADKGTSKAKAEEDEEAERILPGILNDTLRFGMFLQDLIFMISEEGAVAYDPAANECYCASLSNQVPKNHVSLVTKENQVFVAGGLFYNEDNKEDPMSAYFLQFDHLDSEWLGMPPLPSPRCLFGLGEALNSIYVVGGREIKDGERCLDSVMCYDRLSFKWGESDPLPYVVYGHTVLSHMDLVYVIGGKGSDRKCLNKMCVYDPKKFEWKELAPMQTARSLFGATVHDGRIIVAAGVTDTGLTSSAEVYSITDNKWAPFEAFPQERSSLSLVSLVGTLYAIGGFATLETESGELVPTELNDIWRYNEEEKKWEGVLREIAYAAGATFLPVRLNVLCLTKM
B2: Coiled-coil domain-containing protein 33 (Homo sapiens), Q8N5R6-5 (parent)
chain: MGEPGPPSPPAPKAAPGLIDSFSEMNNYRRAMQKMAEDILSLRRQASILEGENRILRSRLAQQEEEEGQGKASEAQNTVSMKQKLLLSELDMKKLRDRVQHLQNELIRKNDREKELLLLYQAQQPQAALLKQYQGKLQKMKALEETVRHQEKVIEKMERVLEDRLQDRSKPPPLNRQQGKPYTGFPMLSASGLPLGSMGENLPVELYSVLLAENAKLRTELDKNRHQQAPIILQQQALPVDPGELGAGGDLTERLQETHGPGHSECTETLPAQDLLSGTSDKFNLLAKLEHAQSRILSLESQLEDSARRWGREKQDLATRLQEQEKGFRHPSNSIIIEQPVSDPPGVAPRGSGGGAGSHRTPKVTGP
partner: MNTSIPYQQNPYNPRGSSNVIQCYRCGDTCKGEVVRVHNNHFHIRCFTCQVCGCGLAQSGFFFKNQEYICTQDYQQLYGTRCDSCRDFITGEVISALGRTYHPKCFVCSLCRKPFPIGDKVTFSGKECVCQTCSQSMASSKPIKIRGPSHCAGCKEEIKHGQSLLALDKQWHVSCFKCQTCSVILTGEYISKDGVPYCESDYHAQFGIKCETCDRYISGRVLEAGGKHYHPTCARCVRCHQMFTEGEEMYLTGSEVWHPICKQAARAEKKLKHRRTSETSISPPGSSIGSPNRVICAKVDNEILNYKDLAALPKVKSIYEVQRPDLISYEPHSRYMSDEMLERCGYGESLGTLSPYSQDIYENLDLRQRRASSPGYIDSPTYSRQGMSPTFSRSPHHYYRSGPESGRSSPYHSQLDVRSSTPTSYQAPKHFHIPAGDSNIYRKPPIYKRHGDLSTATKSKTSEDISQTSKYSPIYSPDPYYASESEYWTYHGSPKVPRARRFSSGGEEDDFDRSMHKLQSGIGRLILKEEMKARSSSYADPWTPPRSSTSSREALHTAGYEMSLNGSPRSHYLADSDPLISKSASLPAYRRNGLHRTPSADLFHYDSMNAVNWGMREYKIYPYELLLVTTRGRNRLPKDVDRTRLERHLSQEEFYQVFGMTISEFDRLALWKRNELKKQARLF
B3: Ornithine decarboxylase antizyme 3 (Homo sapiens), Q9UMX2 (parent)
chain: MPCKRCRPSVYSLSYIKRGKTRNYLYPIWSPYAYYLYCYKYRITLREKMLPRCYKSITYKEEEDLTLQPRSCLQCSESLVGLQEGKSTEQGNHDQLKELYSAGNLTVLATDPLLHQDPVQLDFHFRLTSQTSAHWHGLLCDRRLFLDIPYQALDQGNRESLTATLEYVEEKTNVDSVFVNFQNDRNDRGALLRAFSYMGFEVVRPDHPALPPLDNVIFMVYPLERDVGHLPSEPP
partner: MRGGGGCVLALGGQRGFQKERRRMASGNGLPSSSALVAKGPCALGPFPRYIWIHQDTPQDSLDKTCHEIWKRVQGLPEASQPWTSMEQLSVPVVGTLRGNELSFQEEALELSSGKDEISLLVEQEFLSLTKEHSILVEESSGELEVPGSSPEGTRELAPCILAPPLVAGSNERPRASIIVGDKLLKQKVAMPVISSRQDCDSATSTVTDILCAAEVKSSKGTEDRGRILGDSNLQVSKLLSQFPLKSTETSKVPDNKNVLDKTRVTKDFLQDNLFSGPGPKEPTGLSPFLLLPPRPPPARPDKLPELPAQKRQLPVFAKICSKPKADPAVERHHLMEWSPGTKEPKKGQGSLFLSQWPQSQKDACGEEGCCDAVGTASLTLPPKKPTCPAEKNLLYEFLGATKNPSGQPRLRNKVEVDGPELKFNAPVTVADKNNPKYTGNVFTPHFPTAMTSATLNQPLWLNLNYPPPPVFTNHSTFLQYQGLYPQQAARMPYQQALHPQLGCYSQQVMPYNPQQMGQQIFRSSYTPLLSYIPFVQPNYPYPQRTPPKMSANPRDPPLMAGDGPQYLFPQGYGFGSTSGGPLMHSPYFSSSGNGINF
B4: N-acetyltransferase 8 (Homo sapiens), Q9UHE5 (parent)
chain: MAPCHIRKYQESDRQWVVGLLSRGMAEHAPATFRQLLKLPRTLILLLGGPLALLLVSGSWLLALVFSISLFPALWFLAKKPWTEYVDMTLCTDMSDITKSYLSERGSCFWVAESEEKVVGMVGALPVDDPTLREKRLQLFHLFVDSEHRRQGIAKALVRTVLQFARDQGYSEVILDTGTIQLSAMALYQSMGFKKTGQSFFCVWARLVALHTVHFIYHLPSSKVGSL
partner: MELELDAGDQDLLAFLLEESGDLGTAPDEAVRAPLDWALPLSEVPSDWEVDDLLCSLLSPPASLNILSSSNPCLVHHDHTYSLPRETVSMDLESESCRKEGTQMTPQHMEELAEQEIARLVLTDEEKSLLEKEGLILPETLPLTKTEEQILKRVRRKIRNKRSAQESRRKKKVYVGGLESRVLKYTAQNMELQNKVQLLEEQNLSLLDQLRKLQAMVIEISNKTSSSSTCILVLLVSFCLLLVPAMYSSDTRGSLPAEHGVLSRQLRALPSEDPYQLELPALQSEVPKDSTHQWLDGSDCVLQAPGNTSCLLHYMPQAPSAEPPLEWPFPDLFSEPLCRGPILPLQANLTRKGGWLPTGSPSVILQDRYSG
B5: MAP kinase-activated protein kinase 3 (Homo sapiens), Q16644 (parent)
chain: MDGETAEEQGGPVPPPVAPGGPGLGGAPGGRREPKKYAVTDDYQLSKQVLGLGVNGKVLECFHRRTGQKCALKLLYDSPKARQEVDHHWQASGGPHIVCILDVYENMHHGKRCLLIIMECMEGGELFSRIQERGDQAFTEREAAEIMRDIGTAIQFLHSHNIAHRDVKPENLLYTSKEKDAVLKLTDFGFAKETTQNALQTPCYTPYYVAPEVLGPEKYDKSCDMWSLGVIMYILLCGFPPFYSNTGQAISPGMKRRIRLGQYGFPNPEWSEVSEDAKQLIRLLLKTDPTERLTITQFMNHPWINQSMVVPQTPLHTARVLQEDKDHWDEVKEEMTSALATMRVDYDQVKIKDLKTSNNRLLNKRRKKQAGSSSASQGCNNQ
B6: WD repeat domain-containing protein 83 (Homo sapiens), Q9BRX9 (parent)
chain: MAFPEPKPRPPELPQKRLKTLDCGQGAVRAVRFNVDGNYCLTCGSDKTLKLWNPLRGTLLRTYSGHGYEVLDAAGSFDNSSLCSGGGDKAVVLWDVASGQVVRKFRGHAGKVNTVQFNEEATVILSGSIDSSIRCWDCRSRRPEPVQTLDEARDGVSSVKVSDHEILAGSVDGRVRRYDLRMGQLFSDYVGSPITCTCFSRDGQCTLVSSLDSTLRLLDKDTGELLGEYKGHKNQEYKLDCCLSERDTHVVSCSEDGKVFFWDLVEGALALALPVGSGVVQSLAYHPTEPCLLTAMGGSVQCWREEAYEAEDGAG

Variants of: B1
Details: with klh40_human KLHL40, Q2TBA0

effect of a mutation on the interaction | Variant
with no effect | H300R
with no effect | P238Q

Variants of: B2
Details: with ablm3_human ABLIM3, O94929

effect of a mutation on the interaction | Variant
with no effect | M25V
with no effect | R30L
disrupting interaction strength | P203L
with no effect | G196R

Variants of: B3
Details: with ca094_human C1orf94, Q6P1W5

effect of a mutation on the interaction | Variant
disrupting interaction strength | V174A
with no effect | R193Q

Variants of: B4
Details: with creb3_human CREB3, O43889

effect of a mutation on the interaction | Variant
with no effect | F143S

Variants of: B5
Details: with mk14_human MAPK14, Q16539
mk14_human MAPK14, Q16539, sequence (Q16539 whole entry): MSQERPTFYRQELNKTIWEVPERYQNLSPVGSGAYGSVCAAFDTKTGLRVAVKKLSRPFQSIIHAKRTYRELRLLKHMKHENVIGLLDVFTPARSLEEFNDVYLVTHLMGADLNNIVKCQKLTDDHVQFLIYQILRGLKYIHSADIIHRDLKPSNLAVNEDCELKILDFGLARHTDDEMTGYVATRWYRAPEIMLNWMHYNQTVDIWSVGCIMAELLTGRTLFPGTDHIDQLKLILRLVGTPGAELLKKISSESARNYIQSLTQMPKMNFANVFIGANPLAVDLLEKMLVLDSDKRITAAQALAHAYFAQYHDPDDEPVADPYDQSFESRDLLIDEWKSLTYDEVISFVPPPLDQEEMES

effect of a mutation on the interaction | Variant
with no effect | E105A

Variants of: B6
Details: with keap1_human KEAP1, Q14145
keap1_human KEAP1, Q14145, sequence (Q14145 whole entry): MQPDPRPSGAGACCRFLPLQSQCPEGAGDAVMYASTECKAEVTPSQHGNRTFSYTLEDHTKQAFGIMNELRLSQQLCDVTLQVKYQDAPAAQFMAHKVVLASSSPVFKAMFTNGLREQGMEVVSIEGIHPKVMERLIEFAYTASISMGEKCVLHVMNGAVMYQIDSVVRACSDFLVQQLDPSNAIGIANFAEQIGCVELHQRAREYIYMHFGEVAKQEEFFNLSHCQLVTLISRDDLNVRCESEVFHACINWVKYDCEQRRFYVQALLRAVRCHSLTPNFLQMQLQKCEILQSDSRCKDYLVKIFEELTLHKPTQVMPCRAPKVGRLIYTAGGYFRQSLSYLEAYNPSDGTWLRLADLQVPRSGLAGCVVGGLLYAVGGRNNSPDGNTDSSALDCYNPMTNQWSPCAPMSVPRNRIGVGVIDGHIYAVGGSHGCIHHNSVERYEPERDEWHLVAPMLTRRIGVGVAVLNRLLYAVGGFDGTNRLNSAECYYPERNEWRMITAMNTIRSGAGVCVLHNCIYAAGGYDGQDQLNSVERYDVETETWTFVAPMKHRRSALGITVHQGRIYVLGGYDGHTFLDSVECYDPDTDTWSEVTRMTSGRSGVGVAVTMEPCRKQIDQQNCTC

effect of a mutation on the interaction | Variant
with no effect | E144Q
